Biological target: T1, BSA control protein (bovine, UniProt P02769 25-607)
T1 construct: also called bovine serum albumin
Test: phage ELISA

T1 sequence (P02769 25-607 limits assumed): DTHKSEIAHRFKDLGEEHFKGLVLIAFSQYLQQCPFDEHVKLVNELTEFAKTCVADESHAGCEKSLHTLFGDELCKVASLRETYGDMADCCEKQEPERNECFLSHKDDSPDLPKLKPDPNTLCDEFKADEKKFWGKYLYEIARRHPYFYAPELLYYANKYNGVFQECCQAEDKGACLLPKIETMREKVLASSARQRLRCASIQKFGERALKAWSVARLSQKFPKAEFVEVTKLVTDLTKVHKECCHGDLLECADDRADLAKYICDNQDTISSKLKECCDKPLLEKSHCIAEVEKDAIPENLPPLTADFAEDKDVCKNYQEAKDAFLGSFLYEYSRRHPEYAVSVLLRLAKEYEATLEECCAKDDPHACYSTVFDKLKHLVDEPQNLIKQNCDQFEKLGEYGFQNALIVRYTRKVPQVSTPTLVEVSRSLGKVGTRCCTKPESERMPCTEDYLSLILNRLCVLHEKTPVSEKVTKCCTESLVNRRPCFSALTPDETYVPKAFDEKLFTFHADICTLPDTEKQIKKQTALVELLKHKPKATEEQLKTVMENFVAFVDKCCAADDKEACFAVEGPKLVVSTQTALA

B1: phage-displayed anti-c-Met scFv PC1 (scFv, not shown: large carriers)
scFv: MAQVQLQQSGPGLVKPSQTLSLTCDISGDSVSSNSAAWNWIRQSPSRGLEWLGRTYYRSRWYNEYAVSVRGRISINAETSKNQFSLQLNSVTPEDTAIYYCARAGFCSGGNCYPGSEDAFDLWGQGTMVTVGGGGSGGGGSGGGGSDVVMTQSPPSLSVSVGDRVTITCRASQDITNDLNWYQQKPGKAPQLLIYHASELETGVPSRFSGSGFGTDFTLTISSLQPADIATYYCQQYDDLPLTFGGGTKVEIKR
notes: tested as whole phage; also called anti-c-Met phage clone 1
B1: no binding.

B2: phage-displayed anti-c-Met scFv PC21 (scFv, not shown: large carriers)
scFv: MAEVQLVESGPGLVKPSGTLSLKCDASAISMDSNYWWSWLRQPPGKGLEWIGEISHSGSTDYNPSLKSRATISIDKSKKQFFLRLKSVTAADTAVYYCAGLLSPLDAFDEWGQGTMVTVGGGGSGGGGSGGGGSDIQMTQSPSSLSASVGDRVTITCRASQRVATYLNWYQQKPGKAPNLLIYEASSLQSGVPSRFSGRRSGTDFTLTISSLQPEDFATYYCQQSYNTPYTFGQGTRLEIKR
notes: tested as whole phage; also called anti-c-Met phage clone 21
B2: no binding.

From US20130209365A1 (ACADEMIA SINICA, published 2013)
